Holding throughout (type): physicochemical, human
Data set [1] is described as follows: DSC of free PDZ domain (thermal stability). Particulars: 21 μM free PTPN3-PDZ, 18 μM PTPN4-PDZ, scan rate 200 °C/h, buffer A pH 7.5, repeated three times. How it is done: DSC experiments were carried out on a Microcal VP-capillary DSC (Malvern). 18, 21, 94 and 28 μM of PTPN4-PDZ, free PTPN3-PDZ, free PTPN3-PDZNext and PTPN3-PDZ complexed with peptides respectively were scanned from 10 °C to 90–100 °C with a scan rate of 200 °C/h. Large excess of peptides were used: about 600 μM for p38γ PBM, about 300 μM for HBVc PBM and HPV16E6 PBM and about 200 μM for HPV18E6 PBM. The buffer A was repeatedly scanned to ensure a stable buffer baseline. The buffer baseline was subtracted from the protein thermogram. Subsequent to normalization of the data by the protein concentration, a non-linear curve fitting algorithm was employed to obtain the Tm of the transition. All experiments were repeated three times.

The nature of data set [2]: Aggregation/stability followed by NMR HSQC spectra at 20 °C. How it is done:
To evaluate the stability of PTPN3-PDZ, we performed differential scanning calorimetry (DSC) (Fig. 2C). […] As a comparison, we performed DSC on PTPN4-PDZ. We obtained an endothermic peak with a Tm of 47 °C (Fig. 2C). […] This thermal instability of the PTPN3-PDZ construct could be responsible for its aggregation previously detected by NMR.
The instability and tendency to oligomerize of PTPN3-PDZ made this construct unsuitable for crystallogenesis. To gain in stability and protein expression yield, we extended the N-terminal extremity of PTPN3-PDZ by 15-residues with its wild-type upstream sequence (PTPN3-PDZNext in Fig. 1). These extensions have been reported to provide structural stability to some PDZ containing proteins[13],[14]. The PTPN3-PDZ production yield was increased two-fold after extension from 0.9 mg to 1.8 mg of purified protein per liter of culture. The stability of PTPN3-PDZNext was then evaluated by NMR HSQC spectra recorded during a week at 20 °C. […] The additional peaks of the N-terminal extension residues fall in the spectral region characteristic of unfolded protein and no chemical shift differences between PTPN3-PDZNext and the shorter form are detected.
A series of ^1H, ^15N HSQC spectra was recorded over a week at 20 °C for a sample of PTPN3-PDZNext at 170 μM to follow the stability of the construct.

A short description of data set [3]: AUC sedimentation velocity of free PTPN3 PDZ constructs. Particulars: 20 °C. How it is done: To estimate the oligomeric state of the PTPN3-PDZ construct, analytical ultracentrifugation (AUC) experiments were performed (Table 2). Three different concentrations of the protein were tested, 10, 25 and 70 μM. Only one single peak was detected at 10 μM with a sedimentation coefficient of 1.5S in agreement with a monomeric form of 10.5 kDa. At 25 μM, an additional peak was detected with a sedimentation coefficient of 2.6S corresponding to a dimeric form.
Sedimentation velocity experiments were carried out at 20 °C using a Beckman Coulter XL-I centrifuge equipped with a AN60-Ti rotor. Various protein and protein–peptide complex concentrations (protein concentrations ranging from 12.5 to 70 μM) samples were centrifuged for 17 h at 42000 rpm. Data were analyzed with SEDFIT 15.1 using a continuous size distribution c(S) model. The partial specific volume, the viscosity and the density of the samples were calculated with […]. The processed data were used to obtain values of sedimentation coefficients at null concentration in our experimental conditions (S0) and to get the standard sedimentation coefficients in water at 20 °C (S0,w,20) (Table 2).

Assay in data set [4]: as above
The note with it: 20 °C. This is another data set of the same source.

[5] abbreviates: PTPN3-PDZ 25 μM, two peaks are present.

We go through 2 molecules from PMC6520365, “Structural and functional characterization of the PDZ domain of the human phosphatase PTPN3 and its interaction with the human papillomavirus E6 oncoprotein” (Scientific Reports, 2019).

Marks after values point to notes of the source that are not given here.

B1: PTPN3-PDZ: recombinant PDZ domain of human PTPN3 expressed in E. coli (protein)
chain: GDSYLVLIRITPDEDGKFGFNLKGGVDQKMPLVVSRINPESPADTCIPKLNEGDQIVLINGRDISEHTHDQVVMFIKASRESHSRELALVIRRRAVRSFADFKSEDELNQLFPEAIFPMCPEGGDTLEGSMAQLKKGLESGTVLIQFEQLYRKKPGLAITFAKLPQNLDKNRYKDVLPYDTTRVLLQGNEDYINASYVNMEIPAANLVNKYIATQGPLPHTCAQFWQVVWDQKLSLIVMLTTLTERGRTKCHQYWPDPPDVMNHGGFHIQCQSEDCTIAYVSREMLVTNTQTGEEHTVTHLQYVAWPDHGVPDDSSDFLEFVNYVRSLRVDSEPVLVHCSAGIGRTGVLVTMETAMCLTERNLPIYPLDIVRKMRDQRAMMVQTSSQYKFVCEAILRVYEEGLVQMLDPS
modifications: left off: GST, N-terminal, cleaved
notes: recombinant PDZ domain of human PTPN3 expressed in E. coli
Regarding B1, the “Tm (thermal transition midpoint), free PDZ domain” value in data set [1] stood at 41 °C. In addition, the “aggregation by HSQC peak intensity” value in data set [2] (after 10 h at 20 °C, data not shown) is listed as “significant loss of peak intensities”. Moreover, the MW estimated is given as 12.4 kDa in data set [3] (PTPN3-PDZ 10 μM, 42000 rpm) and 11.3–25.9^a kDa in data set [3] (setting [5]). Besides, the “Sed coef (S0,w,20)” value in data set [3] (PTPN3-PDZ 10 μM, standard coefficient in water at 20 °C) is listed as 1.5 S; in data set [3] (setting [5]), 1.5–2.6^a S. Besides, in data set [3] (PTPN3-PDZ 70 μM), the “oligomeric state of free PTPN3-PDZ” value is “higher oligomeric species could be detected”.

B2: PTPN3-PDZNext: PTPN3-PDZ extended at the N-terminal extremity by 15 residues with its wild-type upstream sequence (protein)
chain: STEDASQYYCDKNDNGDSYLVLIRITPDEDGKFGFNLKGGVDQKMPLVVSRINPESPADTCIPKLNEGDQIVLINGRDISEHTHDQVVMFIKASRESHSRELALVIRRRAVRSFADFKSEDELNQLFPEAIFPMCPEGGDTLEGSMAQLKKGLESGTVLIQFEQLYRKKPGLAITFAKLPQNLDKNRYKDVLPYDTTRVLLQGNEDYINASYVNMEIPAANLVNKYIATQGPLPHTCAQFWQVVWDQKLSLIVMLTTLTERGRTKCHQYWPDPPDVMNHGGFHIQCQSEDCTIAYVSREMLVTNTQTGEEHTVTHLQYVAWPDHGVPDDSSDFLEFVNYVRSLRVDSEPVLVHCSAGIGRTGVLVTMETAMCLTERNLPIYPLDIVRKMRDQRAMMVQTSSQYKFVCEAILRVYEEGLVQMLDPS
modifications: left off: GST, N-terminal, cleaved
For B2, the results for the MW estimated in data set [4] (PTPN3-PDZNext 17.5 μM), in data set [4] (PTPN3-PDZNext 35 μM) and in data set [4] (PTPN3-PDZNext 70 μM) were 12.7 kDa, 12.5 kDa and 15 kDa, respectively. The “Sed coef (S0,w,20)” value is recorded as 1.6 S in data set [4] (PTPN3-PDZNext 17.5 μM), 1.7 S in data set [4] (PTPN3-PDZNext 35 μM) and 1.6 S in data set [4] (PTPN3-PDZNext 70 μM). In addition, in data set [4] (PTPN3-PDZNext between 17.5 μM and 70 μM), the “oligomeric state of free PTPN3-PDZNext” value was “devoid of higher oligomeric species”. Besides, in data set [2] (HSQC recorded during a week at 20 °C, PTPN3-PDZNext 170 μM), the “aggregation by HSQC peak intensity” value is “without any signs of aggregation”.
